The nature of this series: soluble on expression in E. coli; label from the status in PepcDB or PDB records.
For the sequence “MGSDKIHHHHHHMTQAITMPDNPGADCIIEAGIVLTGLDAGSGLTGLGADGKMTMRHDVGIRVEKGMIAQIGPMEAVGYGNDHLPRFGSRRMIAMPGLVNAHHHFGVTPLMQGVPFAPLELWLPQFRAMRRIDQRLDTLYSAIEMLESGTTTVQHIHSGFSGTPDSWMQTAEATISAYGEIGMRLGYCFMIRDRNILSYEPDADILSRLPAKLRDWIAPQLAAADIPVPRLMEFYTDLRARFMKGSPQHIRMNLAPANLHWCSDNALQTIFETAKAAGGNVHMHLLETERQAEFARRTYGRSAVQHLQKLQCLDANVTLGHGNWMSGEDLDIIASCGCTICHNASSGLRLGSGIAPVNEMRRRGIPVALGIDQSNIADDRDMTLEMKLVWALHRETGLWNDRPDAGAVLQMASEHGAASAGFGGFTGRLEPGWQADIVLMDKDRIARPAINSRTPPVEALLHRGGRHAIEQVFVGGRLVVDGGRVTTVDRDAVMAEIEAILSRPETDAERYAWQAVETLLPHLESSLQQLGLGAGYRRYRYNSMSDQ”, the “soluble on expression in E. coli” value is “not soluble”. For “MYEGESVVQLAKRMIEHLLKWGVTDAFTDKQIYTILEKAESTLKPLPAMLQVEHPITIVGDIHGQLDALIRYFDAVGYPPKVQFLFLGDYVDRGAKSFEVSLLLFCYKIRYPHLNVFNELPLCARVGQRILCMHGGISQNCNSWESFKALKKPNTPLTCDEGLQVDLMWADPTQDKCNTFAMNKQRAISVVFGQKGLDDFLKKLGLSLIVRAHEVSQEGFNFLFNKKCVTVFSAPYYCGNDTNCGAIMHVSDSYELSFTVLRPRMIATPENFEIVKLMENNYKGLMVASPDPNRGRHLQSADVPQPTPPSVQLVPPVTKPVEIKKQ” the value was “not soluble”. For “MGSDKIHHHHHHMDFHTGKWLCKQYNLNSFTKVSLLHGGENQTYMFESDKNKFVVRQYREGRYTAEQIEAEIHWLIAIQKQMLVPEVVVNKDGDWVTPVMKDEGSIQYFVVFRFINGNEIIEPKDKDYEKLGSFMRMFHEKTNGVLKSVPQTWRGYERPIYSEKKMIHEPLQCLLNTSFLSYEDKNKCLRIAERIQELTNSIQLREKQFVHGDMHFGNILVDKEDWYLLDFDECGFGYKEFDIGVPRLHLIASGQLEDAWGNFMMGYGENISESAIRLGAASRIFYMAGKIPLRLDIEPIKKNPDHFIRRYIQYAEEELCGETIV” the value was “not soluble”; for “MVRKGCNSLVRAEKILTHIAWVGMASYMELLNKFQYPKSSLLNLLNVMVDCGFLIKNKNGYYSLGIKNYELGCQALHRQNIFEVTKRPMQELSLKSGLVCHLGAMESISAIYLDKIESPDSVPTSKSWIGKKLELHITALGKALLAWKTREELDYFLEALTLTPHTRNTFTDKKLFLEELQKTRLRGWAIDNEESTYGAVCLSMPVFNMYNRVNYAISLSGDPVVYSGNKIDSYLELLRKCAEQISYGLGYRNENEHLRKGN”, “soluble”. With “MQSVNRKSNKGATANIDAQEPFSVLLMGIDTGDLGRTEQGRSDTTMVVTINPKENKSTMISLDRDILTDIVGNDTQDKLNHAYAFGGAEMAINTVQELLDIPIHHYVSINMKGLKDLIDAVGGIEVDNTIGEFTLDGITVPAGKIKLDGTTGLAYARMRHEDPEGDVGRQRRQREVVEKIVRKVMSFDGVSKYRKILDAVEANVKTDLTWDDMMDIQSKYLSAFKTIDSEQLQGYSATIDDIYYQVLDPNSLYKTQTTLRKQLGLKEHASEREKDLAFYNQFSYAVTDTALIGESGDSSANSSTSSSSTADTTAGQTEYNGNTQQAAEGTYDPNTYVDPNAYTDPNAYADPNTYVDPNAPQYLEHHHHHH”, the “soluble on expression in E. coli” value is recorded as “soluble”.

Consider “MGVTLAKGGNVSLSKEAPGLTAVTVGLGWDVRTTTGAAYDLDASALLCSGSGRVVSDLHFVFYNNLTSPDGSVQHTGDNLTGEGEGDDESINVELAQVPAEVTKIVFPVSIHEAQSRGQSFGQVSNAFIRVVNRANNVELARYDLSEDASTETAMVFGELYRHGGEWKFRAVGQGYASGLAGIASDYGVNV”, for which the “soluble on expression in E. coli” value is “not soluble”. With “MESFQNLAKKPTLKKQIIEQAFDLKCENCGRKYDYYKFDDGSEFKHGCDCEMIEYAKQSTENYHKRNRRRKAERIFKQSIMNEDLTKATFDNYNPTNEQLVYAKNLCERYANNFTLDNKQSLLIQGSFGTGKSHLSMSIVKSVKAKGYTVLYMNVPQLISTIKNTYNNQTAMTEQELAQIISDVDLMVFDDYGINMNEFATSKMFELIESRIGKHNIFTTNLDEKEMTKNKDLQRIFSRIMSNTTLIKMDGQDYRTRGLKLLEHHHHHH”, the “soluble on expression in E. coli” value was “soluble”. Under “MKERFMSKFAIVFPGQGSQAVGMLADLAEQYAVVKQTFAEASEVLGYDLWALVQDGPVEDLNQTFRTQPALLAASVAIWRVWQQLGLEQPAVLAGHSLGEYSALVCAGVIDFKQAIKLVELRGQLMQQAVPAGTGAMYAIIGLEDEAIAKACADAAQGEVVSPVNFNSPGQVVIAGQKDAVERAGVLCKEAGAKRALPLPVSVPSHCALMKPAADELAKTLAELEFNAPQIPVINNVDVVAETDPVKIKDALIRQLYSPVRWTECVEQMSAQGVEKLIEMGPGKVLTGLTKRIVKTLEGVAVNDVASLDAVK” stands “soluble”; under “MNYVERYIEQFLRATVRNNIKHYLLMLDEKMKNLDDYMRYLITKKEQLSKLIDSLMLTLENKYIDIAEAFQIQCAREINNQEIENIKSELNKVEAYYAQIETQIQQTSTEKIATEKTSYLINYMNAVALEHHHHHH”, “soluble”. For “MAHHHHHHMLNITRLRNLPEDLFEVDRRQKNGSNQSGKGWPQHKELIFDFTSLVRAYNQNKFEHLTDTFNNNRILISELVLHQLDEKNKVVRSTDAANAQEDDFHPVRLRDLINFLVTNMTESWLEFQRKGTQEDKQFTQLRCLNENVETPLRLISYALYKKRQGKDVLLVTSDSGLKCEAGLNSIDSQSIENIG”, the “soluble on expression in E. coli” value is given as “not soluble”.

For the sequence “MGSDKIHHHHHHMIKLKKVLVLGGTRFFGKHLVEALLQDGHDVTIATRGITEDSFGSRVKRLIVDREDEKQLAERLADKSYDIVYDNLCYSSNAAKIICEVLRGKTTKYVMTSSMAVYEPALSLSEEDFDPYEYAIAYGDRNDFNYGEGKRLAEAVVFQQATFPVVAVRFPVVIGENDYTKRLQFYVEHIVREEPVAVNHLDGKLSFIHEEEAGEFLAWCGMKDIEGPINACSNGVVSTREIIHFIEENTGIKSLIQEVGDHVAPYNEVTNCTLHNGKANELGFPFRGLKIEIEKVLCYYIHAMK”, the “soluble on expression in E. coli” value is reported as “not soluble”.

For “MGSDKIHHHHHHAESDSFEDNSSNFESMISLYGIQSATVDSKVGDVPSVTAEEMASVLEALRQNGNTIRNCESETLEGYYEGGDRKEVKMIAEYQARTRSGAFVEQFALCVSVNFNIDNNGGVFYIGTTYSSSTDLFNWQGYGASLSTTAEGNSVFSSTSYLYFRVSDQGNCLVKVPVSFKGSYNFKDNKGTYSFTLSKAAN”, the “soluble on expression in E. coli” value is reported as “not soluble”.

Regarding “MITILGAGKVGMATAVMLMMRGYDDLLLIARTPGKPQGEALDLAHAAAELGVDIRISGSNSYEDMRGSDIVLVTAGIGRKPGMTREQLLEANANTMADLAEKIKAYAKDAIVVITTNPVDAMTYVMYKKTGFPRERVIGFSGILDSARMAYYISQKLGVSFKSVNAIVLGMHGQKMFPVPRLSSVGGVPLEHLMSKEEIEEVVSETVNAGAKITELRGYSSNYGPAAGLVLTVEAIKRDSKRIYPYSLYLQGEYGYNDIVAEVPAVIGKSGIERIIELPLTEDEKRKFDEAVQAVKKLVETLPPQLRE”, the “soluble on expression in E. coli” value is on record as “soluble”.

For the sequence “MIFRQIHEEGLAQMSYLLGCAATGEALVVDPRRDVDVYLELAQSLGLRITAIAETHIHADYLSGARELARATGATLYLSDEGDENWKYKGLEGFPHVLLKDGDEFKVGNIRVRAVHTPGHTPEHLSFLVADGAVTDEPLLFLTGDFVFVGDVGRPDLLEEAAGIKGTAEPGARRMFRSLKEKFLTLPDHVQVWPGHGAGSACGKALGALPATTVGYERRHAWWAEYLERDDEEGFVKALLQGQPEAPTYFKEMKRLNRDGMAILGGLPHPGRLTPAQFERWLREGAILVDTRDKFAFAGGHIPGSINIPAGKNFSTWAGWLLPYDRPLVLLARPEEVEALTRALVRIGLDEVVGYIPGLEGYAQGELETVPQVTAKEAKELWEKGKAFVLDVRGRDEYLAGHIPGAQNIHAGRVLAHLDRLPKDRPLIVHCVGGDRSSTAISALLAHGFRNALNLTGGIKAWREAGFPVVQGEELVQA”, the “soluble on expression in E. coli” value is “soluble”.

As for “MVRANKRNEALRIESALLNKIAMLGTEKTAEAVGVDKSQISRWKRDWIPKFSMLLAVLEWGVVDDDMARLARQVAAILTNKKRPAATERSEQIQMEF”, the “soluble on expression in E. coli” value was “soluble”. Under “FLSTRDNVDELRKIENKSSFVSADNMPEYVKGAFISMEDERFYNHHGFDLKGTTRALFSTISDRDVQGGSTITQQVVKNYFYDNDRSFTRKVKELFVAHRVEKQYNKNEILSFYLNNIYFGDNQYTLEGAANHYFGTTVNKNSTTMSHITVLQSAILASKVNAPSVYNINN” stands “not soluble”; under “MGSDKIHHHHHHMNQAMDTKQIAPFTLALPEGEALPLVCDSPHSGTFYPADFGAVVAPERLRGGEDTHVDALWEAVPRVGGTLLAATFPRVYIDPNRMLDDIDPAQLEGPWPTPLAPGEKTRLGYGLIWSNVDAATPIYDRKLTVAEVQRRINRYYRPYHAALTEAVEGAYQRFGAVWHLNLHSMPNNAYERLKIQSPRPLADFVLGDRDGTTCEPGLVDLVERELREKGYTVARNDPYKGVQLIAQIGRPAERRNSLQIEIRRPLYMEEGTRERNEGFATLQRDLTLLTLRIAEYVRRGV”, “not soluble”. “MSKAVIDTGVFVDYIDRKSPLHDVARNVINSIGQLEVLLPYVTIAEICYVTARVLREAGIEEWLEKSVEFVEWLQRHPAVEVVCSTELDVEAAKVKLRYGLALADCYVLALSKLKNCKAVFRKREKEMPDKVEKDFDVIFLEDYVGGDR”: the “soluble on expression in E. coli” value is on record as “not soluble”.

Consider “MSLVIFIMKKRYICILPYSLSYGGVFIDCKEVIANYWNFRSSTYKNGINGFDEEERAVWKQIFENSLASGKRLKVLDVGTGTGFLALLFAEMGHEVSGIDLSEGMLEKARHNADNMGLEISLFHGDAENLPFEDCSFDLVVNKYLLWTLQEPASAVREWKRVLKPGGMIFAIDGNWFDPRPDRYIKRMLYGLAERFAKKNQYNLIFKKSYGPIRNSLPLYEKISPKNISFLFSETGLMNTEISPLLEVQKFQRNRHSFSRRIFENNSIFLISGQKNEGHHHHHH”, for which the “soluble on expression in E. coli” value is “not soluble”.

Regarding “MAYWLMKSEPDELSIEALARLGEARWDGVRNYQARNFLRAMSVGDEFFFYHSSCPQPGIAGIARITRAAYPDPTALDPESHYHDAKATTDKNPWSAVDVAHVQTFPRVLELGRLKQQAGLVELPLVQKGSRLSVMPVTPEQWAVIVALRLEHHHHHH”, the “soluble on expression in E. coli” value is given as “soluble”. Under “MSLRNQSKMPLVERLDAHAKSCPISLHVPGHKSGAIYPDAWQKLLKWDVTEITGMDDLHHPEDVILEAEELLAECYGSKKSYFLVNGTSGGNVAVIMATLKRGEKVLVPRDAHKSILHGIELAGGEPIFLTPATNKEVGVASGVTTELLEETLHNHPDVKLCIFTYPSYYGTTFNLQKCIRIAHDFGAVVFVDEAHGAHFLTSSEFPKSAVELGADVVVQSAHKTLPALTMGSYLHVVNDLPIFEKLAYYLQVFQTSSPSYLIMASLDAARKYVATYTAADVEAFWKMRARWIKWLTKNKFEVILPDDPLKIIVRKTGYTGYELQAIFEESSYFPELADESQVLLILPLIKKGIDFTPISRIHSPMKKEIAKEPYEMSTPCASGLALTYEEMHARATEFVLLDEATTRVSAETISLYPPGIPAIIRGEGITEKHIRELKNIRTRHYQGGEKLAENYIRVFREGHHHHHH” stands “soluble”.

Values taken from the DeepSol protein solubility set.
